Experimental findings from patent publication US20230203482A1, “Methods of Rescuing Stop Codons via Genetic Reassignment with ACE-tRNA” (THE WISTAR INSTITUTE OF ANATOMY AND BIOLOGY, priority 2017, published 2023) are described below.

What all share (format): cell-based, human
The subject of data set [1] is native stop codons (TAA, TAG, TGA) of HEK293 transcripts. As to the kind of experiment: Ribosome footprint profiling of transcriptome-wide 3′UTRs. An excerpt: The question was raised whether ACE-tRNAs that show efficacious suppression of premature stop codons may also induce global readthrough of native stop codons. To address this potential “off target” suppression, a transcriptome-wide quantitative profile of actively engaged ribosomes on all cellular transcripts was obtained by generating libraries of ribosome footprints from HEK293 cells expressing exogenous ACE-tRNAs or a control mock plasmid (puc57GG). Streptomycin was removed from the growth media to prevent readthrough artifacts. For comparison, the ribosome footprint library was also generated from cells in the presence or absence of G418 (150 μM, 48 hours). […] Only transcripts with a minimum threshold of 5 RPKM in the coding sequence and 0.5 RPKM in the 3′UTR in two replicate libraries were included for the quantitation comparison (254 transcripts in G418 and 495-748 transcripts in ACE-tRNAs). […] ACE-tRNAs examined here had no detectable change of 3′UTR ribosome density with the exception of ACE-tRNA Gln-UAA and Arg-UGA which induced approximately a 2-fold increase in 3′UTR ribosome density for the cognate stop codon complimentary to the ACE-tRNA anticodon. Understanding the biological significance of 2-fold readthrough of protein stops will require further study, but this effect is substantially lower compared to the 100- to 1000-fold suppression of PTC for the same ACE-tRNA.
Multiple in-frame stop codons are frequently found at the end of genes^37-39 and may cause a minor difference in overall 3′UTR ribosome density for ACE-tRNA and G418 treatment. Ribosome occupancy was examined at each nucleotide in the 3′UTR within a 60 nt region downstream of the stop codons. […] Reads were normalized per total million-mapped reads, compared against control cells, and reported as a log 2-fold change as in panel A. More than 5,200 transcripts were mapped to at least 1 footprint in the region of interest. […] Taken together, the ribosome profiling data argue that efficiency of native stop codon suppression by ACE-tRNAs is generally low, and markedly less than the level of PTC suppression.
Ribosome Footprint Profiling Library preparation. HEK293 cells transiently transfected with ACE-tRNAs and control plasmid (puc57GG) were grown in standard grown media in the absence of Pen-Strep for 48 h. Libraries were prepared as described^55, with a few modifications. Briefly, cells were rapidly cooled by addition of ice-cold PBS, lysed in lysis buffer (20 mM Tris-HCl/pH7.4, 150 mM NaCl, 5 mM MgCl2, 1 mM DTT, 1% (v/v) Triton X-100, and 25 U ml^−1 Turbo DNase I) for 10 min on ice, and triturated with ten times through a 26-G needle. After clearance by centrifugation at 16,000 g for 10 min at 4° C., the lysates were digested with 100 U RNase I (Ambion, USA) per A260 lysate at room temperature for 45 min with gentle agitation prior to adding 200 U RiboLock RNase Inhibitor (Thermo Scientific). Ribosome protected mRNA fragments were then isolated by loading lysates onto a 1M sucrose cushion prepared in modified polysome buffer (20 mM Tris-HCl/pH7.4, 150 mM NaCl, 8.5 mM MgCl2, 0.5 mM DTT, 20 U ml^−1 RiboLock RNase Inhibitor) and centrifugated at 70,000 rpm at 4° C. for 2 h using a Beckmen TLA-110 rotor. Ribosome pellets containing mRNA footprints were extracted using TRIzol and separated on a denaturing 12% polyacrylamide gel containing 8M urea. RNA fragments with sizes ranging from 26 to 34 nt were manually excised from the gel stained with SYBR Gold (Invitrogen) and isolated to generate the ribosome-protected fragment library. Contaminating rRNA fragments depleted using a Ribo-Zero kit (Illumina). 3′ Oligonucleotide adaptor ligation, reverse transcription, circularization, and secondary rRNA depletion using biotinylated rRNA depletion oligos (Table 9) were performed as described^55. Libraries were barcoded using indexing primers for each sample during PCR amplification. […]

For data set [2], the system named is NLuc-UAG PTC. As to the kind of experiment: NanoLuc nonsense reporter screen (all-in-one HTC plasmid), TAG/UAG PTC, HEK293 cells. An excerpt:
(§1) In order to enable the identification of the nucleotide composition and functional ability to suppress nonsense codons by new types of tRNA, an All-In-One Plasmid With A One Pot Cloning Reaction was invented for High Throughput Cloning FIG. 11. This approach enables the facile investigation of ACE-tRNA activity via luciferase activity in a standard 96 well format. Briefly, synthetic nucleotide sequences encoding for tRNA are ligated into the NanoLuc Reporter plasmid, with an example of the TGA nonsense reporter plasmid variant shown in FIG. 11. […] and TAG (amber) stop codon rescue vectors have been successfully designed and implemented in FIGS. 16-19. The benefits are the approach is that DNA oligos encoding for tRNA libraries can be ligated in the NanoLuc reporter plasmid with the presence of the restriction enzyme and ligase with the reaction pushed to nearly 100% incorporation of tRNA insert (FIG. 11)-thus the ‘one-pot’ designation. The reaction is transformed into E. coli, with the resultant cDNA purified by standard methods. Another benefit of the invented method is that the tRNA and reporter gen are within the single expression cassette, therefore lowering biological variability and improving data quality obtaining in resulting screens of tRNA suppression activity. The purified cDNA plasmids are then screened in high-throughput 96 well format for their ability to repair nonsense codons by inferred luciferase activity. The approach is suitable for the high-throughput screening of hundreds to thousands of tRNA for novel therapeutic activity.
(§2) The rationale of this study is rooted in the observation that there are multiple tRNA genes with unique sequences (isodecoders) for a given cognate amino acid (isoacceptors), leading to >400 tRNAs annotated in the human genome (http:lowelab.ucsc.edu/GtRNAdb/)^28, 29. First, tRNA genes were examined to identify individual ACE-tRNAs that retain suppression efficacy of PTCs in mammalian cells. In order to maximize sequence coverage, an all-in-one cDNA plasmid was generated that supports both high-throughput cloning (HTC) of ACE-tRNAs and quantitative measurement of PTC suppression using luminescence following delivery to mammalian cells, FIG. 21B. ACE-tRNA sequences were cloned as DNA oligos into the HTC plasmid using Golden Gate cloning^30 paired with ccdB negative selection^31. This strategy produced ˜100% cloning efficiency. ACE-tRNA suppression efficiency was read out from a split NanoLuc luciferase (NLuc) NanoBiT platform whereby the PTC of interest (UGA, UAA, or UAG) was introduced in-frame at the junction between the large bit and small bit domains, FIG. 21B^32, using a 96-well format and normalized to background obtained in NLuc-PTC expressing cells. Twenty-one glycine ACE-tRNAs were first evaluated for suppression of the UGA PTC, FIG. 22, top left, column 1 (violet). […] Given the high sequence conservation among the Gly-tRNAs screened for anti-codon tolerance (FIG. 27), it would be difficult to predict de novo which tRNA would be most amenable to anticodon-editing.
(§3) The parent plasmid used was pcDNA3.1(+). The cDNA encoding pNLuc was Gibson Assembled (New England Biolabs, USA) into restriction sites HindIII and XhoI. A glycine (codon gga), tryptophan ([…]), amber (tag), opal (tga) and ochre (taa), were added to amino acid position 160 during cDNA per. The pcDNA3.1(+) polyA sequence was replaced for one with no BbsI restriction sites using per based Gibson Assembly. The high throughput ACE-tRNA Golden Gate cloning site was generated by first inserting the 5′ leader sequence of the human tRNA^Tyr gene (bold) with a T7 promoter sequence upstream (italics)
(§4) tRNA gene sequences were obtained from the tRNA database tRNAscan-SE (http://gtrnadb.ucsc.edu/index.html; PMID: 26673694). […]

The subject of data set [3] is NLuc-UAA PTC. As to the kind of experiment: NanoLuc nonsense reporter screen (all-in-one HTC plasmid), TAA/UAA PTC, HEK293 cells. As to conditions: Table 3, Gln TAA.
From the text: as §1, §2, §3, §4

Numbering of substitutions follows the chain as printed.

For `CN[C@@H]1[C@@H](O)[C@@H](O[C@@H]2[C@@H](O)[C@H](O[C@H]3O[C@H]([C@@H](C)O)[C@@H](O)[C@H](O)[C@H]3N)[C@@H](N)C[C@H]2N)OC[C@]1(C)O` [G418, reference compound], the “ribosome occupancy at each nucleotide in the 3′UTR downstream of stop codons” value in data set [1] (HEK293, log 2-fold change versus control) was “no observable change of ribosome occupancy”. For the same molecule, the “change of 3′UTR ribosome density versus control” value in data set [1] (HEK293, G418 150 μM, 48 hours, cognate stop codon group) is “no observable effect”.

B1: TrpTAGchr12.trna6: ACE-tRNA Trp, TAG suppressor, SEQ ID NO: 36 (nucleic acid)
chain: CGTCGACCTCGTGGCGCAACGGTAGCGCGTCTGACTCTAGATCAGAAGGCTGCGTGTTCGAATCACGTCGGGGTCA
modifications: expressed or natural sequence
Consider B1, for which, in data set [2] (Table 4, Trp TAG), the Ranking result is on record as “#4”.

B2: TrpTAGchr17.trna10: ACE-tRNA Trp, TAG suppressor, SEQ ID NO: 33 (nucleic acid)
chain: B1 chain with C20T, C50T, G60A, A62G
modifications: expressed or natural sequence
In the case of B2, the Ranking entry in data set [2] (Table 4, Trp TAG) is “#1”.

B3: GluTAGchr1.trna123: ACE-tRNA Glu, TAG suppressor, SEQ ID NO: 40 (nucleic acid)
chain: CGTCTCCCTGGTGGTCTAGTGGCTAGGATTCGGCGCTCTAACCGCCGCGGCCCGGGTTCGATTCCCGGTCAGGGAA
modifications: expressed or natural sequence
As to B3, the Ranking result in data set [2] (Table 5, Glu TAG) is “#3”.

B4: GluTAGchr1.trna106: ACE-tRNA Glu, TAG suppressor, SEQ ID NO: 41 (nucleic acid)
chain: B3 chain with C23T
modifications: expressed or natural sequence
On to B4, for which the Ranking entry in data set [2] (Table 5, Glu TAG) is reported as “#4”.

B5: GluTAGchr13.trna2: ACE-tRNA Glu, TAG suppressor, SEQ ID NO: 38 (nucleic acid)
chain: CGTCTCCCACATGGTCTAGCGGTTAGGATTCCTGGTTCTAACCCAGGCGGCCCGGGTTCGACTCCCGGTGTGGGAA
modifications: expressed or natural sequence
As to B5, the Ranking result in data set [2] (Table 5, Glu TAG) is reported as “#1”.

B6: GluTAGchr2.trna18: ACE-tRNA Glu, TAG suppressor, SEQ ID NO: 39 (nucleic acid)
chain: B5 chain with C10T, C48T, G70A
modifications: expressed or natural sequence
In the case of B6, the Ranking result in data set [2] (Table 5, Glu TAG) is given as “#2”.

B7: GlnTAAchr1.trna17: ACE-tRNA Gln, TAA suppressor, SEQ ID NO: 26 (nucleic acid)
chain: CGTCGGTTCCATGGTGTAATGGTGAGCACTCTGGACTTTAAATCCAGCGATCCGAGTTCGAGTCTCGGTGGAACCT
modifications: expressed or natural sequence
B7: the Ranking entry in data set [3] is “#3”.

B8: GlnTAAchr6.trna63: ACE-tRNA Gln, TAA suppressor, SEQ ID NO: 29 (nucleic acid)
chain: B7 chain with T8C, G24T, G49A, G62A, A72G
modifications: expressed or natural sequence
Turning to B8, in data set [3], the Ranking result is “#5.2”.

B9: GlnTAAchr6.trna175: ACE-tRNA Gln, TAA suppressor, SEQ ID NO: 25 (nucleic acid)
chain: B7 chain with T7C, T8C, G24T, G60A, G62A, A72G
modifications: expressed or natural sequence
In the case of B9, in data set [3], the Ranking result is “#2”.

B10: GlnTAAchr1.trna101: ACE-tRNA Gln, TAA suppressor, SEQ ID NO: 24 (nucleic acid)
chain: B7 chain with G24A
modifications: expressed or natural sequence
B10: the Ranking result in data set [3] was “#1”.

B11: GlnTAAchr17.trna14: ACE-tRNA Gln, TAA suppressor, SEQ ID NO: 28 (nucleic acid)
chain: B7 chain with T8C, G24T, G60A, G62A, A72G
modifications: expressed or natural sequence
For B11, the Ranking entry in data set [3] was “#5”.

B12: GlnTAAchr6.trna1: ACE-tRNA Gln, TAA suppressor, SEQ ID NO: 27 (nucleic acid)
chain: B7 chain with G24T, G60A, G62A
modifications: expressed or natural sequence
Consider B12, for which the Ranking entry in data set [3] is “#4”.
